Results published in paper PMC8632965 (2021).

T1: caveolin-1 protein (UniProt Q03135 1-178)
T1 chain: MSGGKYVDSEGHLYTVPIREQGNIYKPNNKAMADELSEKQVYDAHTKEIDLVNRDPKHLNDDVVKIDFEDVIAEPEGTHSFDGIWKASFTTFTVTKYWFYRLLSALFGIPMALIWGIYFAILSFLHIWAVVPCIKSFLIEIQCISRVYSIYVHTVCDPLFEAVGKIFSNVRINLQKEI

B1: extracellular portion of CD98 (212-630 of CD98hc) (domain or fragment)
chain: ELPAQKWWHTGALYRIGDLQAFQGHGAGNLAGLKGRLDYLSSLKVKGLVLGPIHKNQKDDVAQTDLLQIDPNFGSKEDFDSLLQSAKKKSIRVILDLTPNYRGENSWFSTQVDTVATKVKDALEFWLQAGVDGFQVRDIENLKDASSFLAEWQNITKGFSEDRLLIAGTNSSDLQQILSLLESNKDLLLTSSYLSDSGSTGEHTKSLVTQYLNATGNRWCSWSLSQARLLTSFLPAQLLRLYQLMLFTLPGTPVFSYGDEIGLDAAALPGQPMEAPVMLWDESSFPDIPGAVSANMTVKGQSEDPGSLLSLFRRLSDQRSKERSLLHGDFHAFSAGPGLFSYIRHWDQNERFLVVLNFGDVGLSAGLQASDLPASASLPAKADLLLSTQPGREEGSPLELERLKLEPHEGLLLRFPYAA
B2: extracellular portion of CD147 (ECD), amino acids 22–205 (domain or fragment)
chain: AAGTVFTTVEDLGSKILLTCSLNDSATEVTGHRWLKGGVVLKEDALPGQKTEFKVDSDDQWGEYSCVFLPEPMGTANIQLHGPPRVKAVKSSEHINEGETAMLVCKSESVPPVTDWAWYKITDSEDKALMNGSESRFFVSSSQGRSELHIENLNMEADPGQYRCNGTSSKGSDQAIITLRVRSH

Legend:
[1] = target: domain 1 of CD147 with the K63A mutation (human, UniProt P35613-2 22-205, K63A); experiment: SPR
[2] = target: B1; experiment: SPR
caveolin-1 protein [3] = target: T1, caveolin-1 protein; experiment: SPR
caveolin-1 protein [4] = target: T1, caveolin-1 protein; experiment: SPR; in the presence of 5A12 antibody

Row | Kd [1] [nM] | Kd [2] [nM] | Kd (caveolin-1 protein [3]) [nM] | Kd (caveolin-1 protein [4]) [nM] | Binder
1 | 7490 |  |  |  | B1
2 |  | 818 | 35.7 | 14.9 | B2
